The target in assay [1] is 1VH8-scaffolded V1V2 from HIV-1 strain CAP256-SU (trimeric scaffold). The assay can be described thus: crystal structure.
Assay [2] concerns the target these trimeric scaffolded V1V2s (1VH8- and 4F2K-scaffolded), expressed and purified in GnTI- cells. The assay can be described thus: SPR. In general terms: Surface plasmon resonance follows binding to a sensor surface in real time, without labels.

A word on the stoichiometry N: it is a count of units in the complex or per binding partner. In assay [1], “1VH8-scaffolded V1V2 from HIV-1 strain CAP256-SU (trimeric scaffold)” returned a stoichiometry N of 3.

B1: bNAb CH01 (antibody, V domains shown)
VH: EVQLVESGANVVRPGGSLRLSCKASGFIFENFGFSWVRQAPGKGLQWVAGLNWNGGDTRYADSVKGRFRMSRDNSRNFVYLDMDKVGVDDTAFYYCARGTDYTIDDAGIHYQGSGTFWYFDLWGRGTLVSVSS
VL: EIVLAQSPGTLSLSPGERATLSCRASHNVHPKYFAWYQQKPGQSPRLLIYGGSTRAAGIPGKFSGSGSGTDFTLTISRVDPEDFAVYYCQQYGGSPYTFGQGTKVEIK
In general, Kd refers to the equilibrium constant for the complex coming apart. Consider B1, for which, in assay [2], the Kd lay within 20 to 50 µM.

B2: bNAb PG9 (antibody, V domains shown)
VH: QRLVESGGGVVQPGSSLRLSCAASGFDFSRQGMHWVRQAPGQGLEWVAFIKYDGSEKYHADSVWGRLSISRDNSKDTLYLQMNSLRVEDTATYFCVREAGGPDYRNGYNYYDFYDGYYNYHYMDVWGKGTTVTVSS
VL: QSALTQPASVSGSPGQSITISCNGTSNDVGGYESVSWYQQHPGKAPKVVIYDVSKRPSGVSNRFSGSKSGNTASLTISGLQAEDEGDYYCKSLTSTRRRVFGTGTKLTVL
As for B2, in assay [2], the Kd fell in the range of 0.024 to 0.5 µM.

Values taken from article PMC4833398.
